Measured values: patent US20250092147A1 (PEPMAB B V, published 2025)
Residue numbers refer to the chain shown, from its start. Where “and” joins values, the source holds several entries; their conditions need not be identical. Equal entries are not always repeated.

Legend:
human CCR7 [1] = target: T1, human CCR7 (human, UniProt P32248 25-378, sulfated tyrosine residues in position Y32 and Y41 (as the filing describes the N-terminal extracellular domain)); assay: cell-based or functional assay
T1 sequence: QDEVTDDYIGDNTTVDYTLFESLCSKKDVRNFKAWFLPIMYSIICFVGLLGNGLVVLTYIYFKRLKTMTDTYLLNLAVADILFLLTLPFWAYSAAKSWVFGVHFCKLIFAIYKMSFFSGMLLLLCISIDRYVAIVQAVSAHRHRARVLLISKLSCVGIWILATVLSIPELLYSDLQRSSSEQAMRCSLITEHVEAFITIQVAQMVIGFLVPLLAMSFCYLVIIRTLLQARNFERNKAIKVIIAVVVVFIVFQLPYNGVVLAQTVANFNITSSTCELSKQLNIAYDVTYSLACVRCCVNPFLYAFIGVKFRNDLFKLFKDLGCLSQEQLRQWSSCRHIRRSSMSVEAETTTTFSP

sulfated antigen SYM1899 = target: T2, sulfated antigen SYM1899 (human, N-terminal pyroGlu; Z denotes sulfated Tyrosine (two Z in (pyroGlu)DEVTDDZIGDNTTVDZTLFESLCSKKDVRNK)); assay: ELISA, SYM1899 coated on the plate, 4 parameter logistics curve fit
T2 construct: also called immunogen SYM1899; synthetic antigen SYM1899
T2 peptide: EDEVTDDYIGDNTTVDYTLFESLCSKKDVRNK
Procedure: SEQ ID NO: 76). 100 ng/well SYM1899 was immobilized onto 96 well Maxisorp plates in coating buffer. Coating buffer was removed and 200 μl/well of block solution (3% w/v semi skim milk powder, PBS) was added and agitated 2 hours room temperature. Plate was washed six times with PBS-T (0.001% v/v Tween 20). […] 100 μl per well in triplicate of each antibody dilution was added to the plate in addition to a negative control of PBS and incubated 2 hours at room temperature with agitation. Plate was washed six times with PBS-T. 100 μl/well goat anti human HRP (Fc specific) (1:60,000 in PBS) was added and plates incubated for one hour agitated at room temperature. Plate was washed six times with PBS-T and once in PBS. 100 μl/well of TMB substrate solution was added and incubated at 37° C. for 10 minutes. 50 μl 1M HCl was added per well and the plate immediately read at 450 nm on a Biolise plate reader.

human CCR7 [2] = target: T1, human CCR7; assay: FACS (flow cytometry) on CLL and TPLL cells
Procedure: Binding of antibodies to membrane expressed CCR7 was determined by Fluorescence-activated cell sorting (FACS) by flow cytometry on three different chronic lymphocytic leukemia (CLL) samples and on three different T-cell Prolymphocytic leukaemia (TPLL) samples (data not shown). Appropriate controls (human isotype controls) were included to easily calculate the percentage of positive cells and/or the relative median fluorescence intensity (RMFI), obtained from the ratio MFI (sample)/MFI (control).

B1: humanized anti-CCR7 mAb 650 variant HC1 LC1 (antibody, V domains shown)
VH: EVQLLESGGGFVKPGGSLKLSCVVSGLTFRDFAMSWVRQTPEKRLVWVATISSGGFYTYYPDSVKGRFTISRDNVRNILYLQMSSLRSEDTAVYYCVRRAYRYDGTGDYSALDYWGTGTTVTVSS
VL: DIQMTQSPSSLSASVGDRVTITCRASQDIGPSLNWYQQKPGKAPKRLIYATSNLDSGVPSRFSGSGSGTDFTLTISSLQPEDFATYYCLQFASSPLTFGQGTKVEIK
IC50 of inhibition of CCL19 induced CCR7 receptor internalization (PathHunter active internalization assay) (human CCR7 [1]): 0.415 µg/ml and 2.8 nM
IC50 of inhibition of CCL19 induced cAMP signalling (cAMP Secondary Messenger Pathway assay) (human CCR7 [1]): 1.61 µg/ml and 10.7 nM
IC50 of inhibition of CCL19 induced β-arrestin recruitment (PathHunter) (human CCR7 [1]): 9.56 µg/ml and 63.7 nM

B2: humanized anti-CCR7 mAb 650 variant HC1 LC3 (antibody, V domains shown)
VH: B1 VH
VL: B1 VL with Y36L, R46S, R61K, T72S, K103R, V104L
notes: Human Fc
EC50 (sulfated antigen SYM1899): > 100 nM

B3: humanized anti-CCR7 mAb 650 variant HC2 LC3 (antibody, V domains shown)
VH: EVQLVESGGGLVKPGGSLRLSCAAPGLTFRDFAMSWVRQAPGKGLEWVSTISSGGFYTYYPDSVKGRFTISRDNAANSLYLQMNSLRAEDTAVYYCVRRAYRYDGTGDYSALDYWGQGTLVTVSS
VL: B1 VL with Y36L, R46S, R61K, T72S, K103R, V104L
notes: Human Fc; See the note on VK3 under HC1 LC3
EC50 (sulfated antigen SYM1899): > 100 nM

B4: humanized anti-CCR7 mAb 650 variant HC3 LC3 (antibody, V domains shown)
VH: B3 VH with K13Q, A24V, P25S, A75S, A76K, S78T, V93S
VL: B1 VL with Y36L, R46S, R61K, T72S, K103R, V104L
notes: as for B3
EC50 (sulfated antigen SYM1899): > 100 nM

B5: control antibody 11-x (antibody, human IgG1, V domains shown)
VH: EVQLLESGGGFVKPGGSLKLSCVVSGLTFRDFAMSWVRQTPEKRLVWVATISSGGFYTYYPDSVKGRFTISRDNVRNILYLQMSSLRSEDTAVYYCARATTVVGTDFDYWGTGTTVTVSS
VL: B1 VL
binding result (human CCR7 [2]): no binding
